Test system: EG7 tumor cells
Assay: EG7 tumor challenge after intranasal immunization with OVA and αGalCer
Format: in vivo
Details: C57BL/6 mice
Procedure: To confirm whether αGalCer could be used as a nasal vaccine adjuvant inducing anticancer activity, C57BL/6 mice were immunized with 100 μg of OVA alone or together with αGalCer (0.125, 0.5, 2.0 μg) by the intranasal administration three times at one-week intervals. Two weeks after the final immunization, 3×10^6 EG7 tumor cells were subcutaneously inoculated in the left flank of the immunized mice. On the 14th day of the inoculation, the mice were sacrificed and the palpable tumors were weighed.

B1: OVA: model antigen given intranasally at 100 μg alone or together with αGalCer (protein, UniProt P01012 2-386, looked up)
Ovalbumin: GSIGAASMEFCFDVFKELKVHHANENIFYCPIAIMSALAMVYLGAKDSTRTQINKVVRFDKLPGFGDSIEAQCGTSVNVHSSLRDILNQITKPNDVYSFSLASRLYAEERYPILPEYLQCVKELYRGGLEPINFQTAADQARELINSWVESQTNGIIRNVLQPSSVDSQTAMVLVNAIVFKGLWEKAFKDEDTQAMPFRVTEQESKPVQMMYQIGLFRVASMASEKMKILELPFASGTMSMLVLLPDEVSGLEQLESIINFEKLTEWTSSNVMEERKIKVYLPRMKMEEKYNLTSVLMAMGITDVFSSSANLSGISSAESLKISQAVHAAHAEINEAGREVVGSAEAGVDAASVSEEFRADHPFLFCIKHIATNAVLFFGRCVSP
With B1 the “mice with tumor masses” value (100 μg OVA alone intranasal, 3×10^6 EG7 cells s.c., day 14) was “all mice” and the “tumor weight compared with vehicle alone” value (OVA alone through the nasal cavity, p<0.05) was “significantly heavy”.

— US20080317769A1, “Vaccine Composition Comprising Alpha-Galactosylceramide as an Adjuvant For Intranasal Administration” (priority 2005, published 2008)
